Consider six variants from IntAct's records for PubMed 19817875.

The labels stand for the following.
B1: Actin nucleation-promoting factor WAS (Homo sapiens), P42768 (parent)
chain: MSGGPMGGRPGGRGAPAVQQNIPSTLLQDHENQRLFEMLGRKCLTLATAVVQLYLALPPGAEHWTKEHCGAVCFVKDNPQKSYFIRLYGLQAGRLLWEQELYSQLVYSTPTPFFHTFAGDDCQAGLNFADEDEAQAFRALVQEKIQKRNQRQSGDRRQLPPPPTPANEERRGGLPPLPLHPGGDQGGPPVGPLSLGLATVDIQNPDITSSRYRGLPAPGPSPADKKRSGKKKISKADIGAPSGFKHVSHVGWDPQNGFDVNNLDPDLRSLFSRAGISEAQLTDAETSKLIYDFIEDQGGLEAVRQEMRRQEPLPPPPPPSRGGNQLPRPPIVGGNKGRSGPLPPVPLGIAPPPPTPRGPPPPGRGGPPPPPPPATGRSGPLPPPPPGAGGPPMPPPPPPPPPPPSSGNGPAPPPLPPALVPAGGLAPGGGRGALLDQIRQGIQLNKTPGAPESSALQPPPQSSEGLVGALMHVMQKRSRAIHSSDEGEDQAGDEDEDDEWDD

Common to all, as to settings: with wipf1_human WIPF1, O43516
wipf1_human WIPF1, O43516, sequence (O43516 whole entry): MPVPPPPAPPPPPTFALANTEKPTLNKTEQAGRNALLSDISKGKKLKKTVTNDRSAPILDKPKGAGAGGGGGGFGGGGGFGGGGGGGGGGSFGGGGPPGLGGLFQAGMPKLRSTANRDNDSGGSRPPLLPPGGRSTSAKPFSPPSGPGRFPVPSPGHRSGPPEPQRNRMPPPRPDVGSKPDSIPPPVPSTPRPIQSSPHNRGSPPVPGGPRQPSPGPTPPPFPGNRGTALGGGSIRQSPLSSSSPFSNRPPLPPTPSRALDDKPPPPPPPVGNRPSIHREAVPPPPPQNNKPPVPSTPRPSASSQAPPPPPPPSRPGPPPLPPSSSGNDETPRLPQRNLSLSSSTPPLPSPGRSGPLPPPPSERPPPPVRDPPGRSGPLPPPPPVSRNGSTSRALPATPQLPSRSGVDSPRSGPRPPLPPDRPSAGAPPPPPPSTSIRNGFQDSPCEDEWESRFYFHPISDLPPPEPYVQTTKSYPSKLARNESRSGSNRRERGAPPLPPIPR
Variants of B1 are the subject of assay [1].
The variants in assay [2] derive from B1. This is another data set of the same source.
The variants in assay [3] derive from B1. The source holds these as a separate data set.

Consider MSGGPMGGRPGGRGAPAVQQNIPSTLLQDHENQRLFEMLGRKCLTLATAVVQLYLALPPGAEHWTKEHCGAVCFVKDNPQKSYFIRLYGLQAGRLLWEQELYSQLVYSTPTPFFHTFAGDDCQAGLNFADEDETQAFRALVQEKIQKRNQRQSGDRRQLPPPPTPANEERRGGLPPLPLHPGGDQGGPPVGPLSLGLATVDIQNPDITSSRYRGLPAPGPSPADKKRSGKKKISKADIGAPSGFKHVSHVGWDPQNGFDVNNLDPDLRSLFSRAGISEAQLTDAETSKLIYDFIEDQGGLEAVRQEMRRQEPLPPPPPPSRGGNQLPRPPIVGGNKGRSGPLPPVPLGIAPPPPTPRGPPPPGRGGPPPPPPPATGRSGPLPPPPPGAGGPPMPPPPPPPPPPPSSGNGPAPPPLPPALVPAGGLAPGGGRGALLDQIRQGIQLNKTPGAPESSALQPPPQSSEGLVGALMHVMQKRSRAIHSSDEGEDQAGDEDEDDEWDD [A134T], for which the entries for the “effect of a mutation on the interaction” value in assay [1] and in assay [2] were “disrupting interaction strength” and “decreasing interaction strength”, respectively.

Regarding MSGGPMGGRPGGRGAPAVQQNIPSTLLQDHENQRLFEMLGRKCLTLATAVVQLYLALPPGAEHWTKEHCGAVCFVKDNPQKSYFTRLYGLQAGRLLWEQELYSQLVYSTPTPFFHTFAGDDCQAGLNFADEDEAQAFRALVQEKIQKRNQRQSGDRRQLPPPPTPANEERRGGLPPLPLHPGGDQGGPPVGPLSLGLATVDIQNPDITSSRYRGLPAPGPSPADKKRSGKKKISKADIGAPSGFKHVSHVGWDPQNGFDVNNLDPDLRSLFSRAGISEAQLTDAETSKLIYDFIEDQGGLEAVRQEMRRQEPLPPPPPPSRGGNQLPRPPIVGGNKGRSGPLPPVPLGIAPPPPTPRGPPPPGRGGPPPPPPPATGRSGPLPPPPPGAGGPPMPPPPPPPPPPPSSGNGPAPPPLPPALVPAGGLAPGGGRGALLDQIRQGIQLNKTPGAPESSALQPPPQSSEGLVGALMHVMQKRSRAIHSSDEGEDQAGDEDEDDEWDD [I85T], the “effect of a mutation on the interaction” value in assay [1] was “with no effect”; in assay [3], “disrupting interaction strength”; in assay [2], “decreasing interaction strength”.

As to MSGGPMGGRPGGRGAPAVQQNIPSTLLQDHENQRLFEMLGRKCLTLATAVVQLYLALPPGAEHWTKEHCGAVYFVKDNPQKSYFIRLYGLQAGRLLWEQELYSQLVYSTPTPFFHTFAGDDCQAGLNFADEDEAQAFRALVQEKIQKRNQRQSGDRRQLPPPPTPANEERRGGLPPLPLHPGGDQGGPPVGPLSLGLATVDIQNPDITSSRYRGLPAPGPSPADKKRSGKKKISKADIGAPSGFKHVSHVGWDPQNGFDVNNLDPDLRSLFSRAGISEAQLTDAETSKLIYDFIEDQGGLEAVRQEMRRQEPLPPPPPPSRGGNQLPRPPIVGGNKGRSGPLPPVPLGIAPPPPTPRGPPPPGRGGPPPPPPPATGRSGPLPPPPPGAGGPPMPPPPPPPPPPPSSGNGPAPPPLPPALVPAGGLAPGGGRGALLDQIRQGIQLNKTPGAPESSALQPPPQSSEGLVGALMHVMQKRSRAIHSSDEGEDQAGDEDEDDEWDD [C73Y], the “effect of a mutation on the interaction” value is given as “disrupting interaction strength” in assay [1] and “decreasing interaction strength” in assay [2].

Turning to MSGGPMGGRPGGRGAPAVQQNIPSTLLQDHENQRLFEMLGRKCLTPATAVVQLYLALPPGAEHWTKEHCGAVCFVKDNPQKSYFIRLYGLQAGRLLWEQELYSQLVYSTPTPFFHTFAGDDCQAGLNFADEDEAQAFRALVQEKIQKRNQRQSGDRRQLPPPPTPANEERRGGLPPLPLHPGGDQGGPPVGPLSLGLATVDIQNPDITSSRYRGLPAPGPSPADKKRSGKKKISKADIGAPSGFKHVSHVGWDPQNGFDVNNLDPDLRSLFSRAGISEAQLTDAETSKLIYDFIEDQGGLEAVRQEMRRQEPLPPPPPPSRGGNQLPRPPIVGGNKGRSGPLPPVPLGIAPPPPTPRGPPPPGRGGPPPPPPPATGRSGPLPPPPPGAGGPPMPPPPPPPPPPPSSGNGPAPPPLPPALVPAGGLAPGGGRGALLDQIRQGIQLNKTPGAPESSALQPPPQSSEGLVGALMHVMQKRSRAIHSSDEGEDQAGDEDEDDEWDD [L46P], the “effect of a mutation on the interaction” value in assay [1] is recorded as “disrupting interaction strength”; in assay [2] it was “decreasing interaction strength”.

Consider MSGGPMGGRPGGRGAPAVQQNIPSTLLQDHKNQRLFEMLGRKCLTLATAVVQLYLALPPGAEHWTKEHCGAVCFVKDNPQKSYFIRLYGLQAGRLLWEQELYSQLVYSTPTPFFHTFAGDDCQAGLNFADEDEAQAFRALVQEKIQKRNQRQSGDRRQLPPPPTPANEERRGGLPPLPLHPGGDQGGPPVGPLSLGLATVDIQNPDITSSRYRGLPAPGPSPADKKRSGKKKISKADIGAPSGFKHVSHVGWDPQNGFDVNNLDPDLRSLFSRAGISEAQLTDAETSKLIYDFIEDQGGLEAVRQEMRRQEPLPPPPPPSRGGNQLPRPPIVGGNKGRSGPLPPVPLGIAPPPPTPRGPPPPGRGGPPPPPPPATGRSGPLPPPPPGAGGPPMPPPPPPPPPPPSSGNGPAPPPLPPALVPAGGLAPGGGRGALLDQIRQGIQLNKTPGAPESSALQPPPQSSEGLVGALMHVMQKRSRAIHSSDEGEDQAGDEDEDDEWDD [E31K], for which the entries for the “effect of a mutation on the interaction” value in assay [1] and in assay [3] were “with no effect” and “disrupting interaction strength”, respectively.

For the variant MSGGPMGGRPGGRGAPAVQQNIPSTLLQDHENQRHFEMLGRKCLTLATAVVQLYLALPPGAEHWTKEHCGAVCFVKDNPQKSYFIRLYGLQAGRLLWEQELYSQLVYSTPTPFFHTFAGDDCQAGLNFADEDEAQAFRALVQEKIQKRNQRQSGDRRQLPPPPTPANEERRGGLPPLPLHPGGDQGGPPVGPLSLGLATVDIQNPDITSSRYRGLPAPGPSPADKKRSGKKKISKADIGAPSGFKHVSHVGWDPQNGFDVNNLDPDLRSLFSRAGISEAQLTDAETSKLIYDFIEDQGGLEAVRQEMRRQEPLPPPPPPSRGGNQLPRPPIVGGNKGRSGPLPPVPLGIAPPPPTPRGPPPPGRGGPPPPPPPATGRSGPLPPPPPGAGGPPMPPPPPPPPPPPSSGNGPAPPPLPPALVPAGGLAPGGGRGALLDQIRQGIQLNKTPGAPESSALQPPPQSSEGLVGALMHVMQKRSRAIHSSDEGEDQAGDEDEDDEWDD [L35H], the “effect of a mutation on the interaction” value in assay [1] was “with no effect”; in assay [3], “disrupting interaction strength”; in assay [2], “decreasing interaction strength”.
